Legend:
[1] = target: human TIGIT (ECD)-his (human) (UniProt Q495A1); experiment: SPR (BIAcore 8K), human TIGIT (ECD)-his on CM5 chip, antibody injected
TIGIT (ECD)-hFc (human) [2] = target: TIGIT (ECD)-hFc (human) (UniProt Q495A1); experiment: FACS blocking assay (protocol of Example 7): serially diluted antibody pre-incubated with TIGIT (ECD)-hFc, then binding of TIGIT (ECD)-hFc to A549/human PVR cells measured; blocked ligand: human PVR [B]
TIGIT (ECD)-hFc (human) [3] = target: TIGIT (ECD)-hFc (human) (UniProt Q495A1); experiment: FACS blocking assay (protocol of Example 7): serially diluted antibody pre-incubated with TIGIT (ECD)-hFc, then binding of TIGIT (ECD)-hFc to A549/human PVR cells measured; blocked ligand: human PVR
[4] = target: human TIGIT (ECD)-his (human) (UniProt Q495A1); experiment: ELISA, coated human TIGIT (ECD)-his (table head says FACS)
TIGIT (ECD)-hFc (human) [5] = target: TIGIT (ECD)-hFc (human) (UniProt Q495A1); experiment: FACS blocking assay (protocol of Example 7): serially diluted antibody pre-incubated with TIGIT (ECD)-hFc, then binding of TIGIT (ECD)-hFc to A549/human PVR cells measured; blocked ligand: human PVR [A]
TIGIT (ECD)-hFc (human) [6] = target: TIGIT (ECD)-hFc (human) (UniProt Q495A1); experiment: FACS blocking assay: antibody preincubated with TIGIT (ECD)-hFc, binding to A549/human PVR cells

Chain of TIGIT (ECD)-hFc (human) (Q495A1 22-141): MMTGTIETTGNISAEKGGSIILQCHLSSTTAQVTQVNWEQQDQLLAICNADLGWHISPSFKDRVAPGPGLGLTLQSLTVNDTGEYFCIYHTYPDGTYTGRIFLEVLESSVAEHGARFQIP
Chain of human TIGIT (ECD)-his (human) (Q495A1 22-141): as above

## Tiragolumab (antibody)
[1]
  Kd: 0.00149 nM
TIGIT (ECD)-hFc (human) [2]
  IC50 (read off the curve): 5 µg/mL
TIGIT (ECD)-hFc (human) [3]
  IC50 (read off the curve): 3 µg/mL
[4]
  EC50: 0.16 nM
TIGIT (ECD)-hFc (human) [5]
  IC50 (read off the curve): 4 µg/mL
TIGIT (ECD)-hFc (human) [6]
  EC50: 42 nM

— patent US20220396617A1
